Data as given in patent publication US20260151494A1 (ARO BIOTHERAPEUTICS, published 2026).
Where a chain is given by its changes, count along the chain named.

B1: CD71-binding FN3 domain of SEQ ID NO: 482 (designed binder)
chain: MLPAPKNLIVSRVTEDSARLSWTAPDAAFDSFFIGYLEPQPPGEAIHLQVPGSERSYDLTGLKPGTEYNVTIQGVKGGFPSNPLHAEFTT
B2: CD71-binding FN3 domain of SEQ ID NO: 534 (designed binder)
chain: B1 chain with I9V, Q49L, N82G, H85Q, E87S
B3: CD71-binding FN3 domain of SEQ ID NO: 487 (designed binder)
chain: B1 chain with I9V, H47G, Q49R, N82E, H85I, E87D
B4: CD71-binding FN3 domain of SEQ ID NO: 521 (designed binder)
chain: B1 chain with I9V, H47V, Q49W, N82H, H85V, E87H
B5: CD71-binding FN3 domain of SEQ ID NO: 514 (designed binder)
chain: B1 chain with I9V, Q49F, N82E, H85I, E87N
B6: CD71-binding FN3 domain of SEQ ID NO: 533 (designed binder)
chain: B1 chain with I9V, H47N, Q49F, N82M, H85S, E87I
B7: CD71-binding FN3 domain of SEQ ID NO: 529 (designed binder)
chain: B1 chain with I9V, H47D, Q49Y, N82L, H85Q, E87H
B8: CD71-binding FN3 domain of SEQ ID NO: 524 (designed binder)
chain: B1 chain with I9V, Q49W, N82M, H85S, E87I
B9: CD71-binding FN3 domain of SEQ ID NO: 517 (designed binder)
chain: B1 chain with I9V, H47A, Q49V, N82M, H85F, E87Y
B10: CD71-binding FN3 domain of SEQ ID NO: 483 (designed binder)
chain: B1 chain with I9V, H47T, Q49V, N82D, H85V, E87S
B11: CD71-binding FN3 domain of SEQ ID NO: 485 (designed binder)
chain: B1 chain with I9V, Q49W, N82L, H85L, E87K
B12: CD71-binding FN3 domain of SEQ ID NO: 505 (designed binder)
chain: B1 chain with I9V, P25L, Q49F, N82E, H85I, E87N
B13: CD71-binding FN3 domain of SEQ ID NO: 516 (designed binder)
chain: B1 chain with I9V, H47S, Q49W, N82S, H85V, E87Y
B14: CD71-binding FN3 domain of SEQ ID NO: 501 (designed binder)
chain: B1 chain with I9V, H47S, Q49L, N82V, H85S, E87I
B15: CD71-binding FN3 domain of SEQ ID NO: 530 (designed binder)
chain: B1 chain with I9V, H47D, Q49L, N82E, H85F, E87H
B16: CD71-binding FN3 domain of SEQ ID NO: 512 (designed binder)
chain: B1 chain with I9V, H47D, Q49W, N82D, H85D, E87H
B17: CD71-binding FN3 domain of SEQ ID NO: 497 (designed binder)
chain: B1 chain with I9V, H47T, Q49L, N82K, H85Y, E87Y
B18: CD71-binding FN3 domain of SEQ ID NO: 535 (designed binder)
chain: B1 chain with I9V, N82D, H85V, E87K
B19: CD71-binding FN3 domain of SEQ ID NO: 526 (designed binder)
chain: B1 chain with I9V, H47S, Q49I, N82D, H85I, E87I
B20: CD71-binding FN3 domain of SEQ ID NO: 493 (designed binder)
chain: B1 chain with I9V, H47L, Q49A, N82L, H85V, E87H
B21: CD71-binding FN3 domain of SEQ ID NO: 522 (designed binder)
chain: B1 chain with I9V, H47T, Q49Y, T60N, N82M, H85S, E87I
B22: CD71-binding FN3 domain of SEQ ID NO: 525 (designed binder)
chain: B1 chain with I9V, H47A, Q49Y, N82E, H85V, E87T
B23: CD71-binding FN3 domain of SEQ ID NO: 513 (designed binder)
chain: B1 chain with I9V, H47S, Q49Y, N82L, H85A, E87Q
B24: CD71-binding FN3 domain of SEQ ID NO: 502 (designed binder)
chain: B1 chain with I9V, H47G, Q49H, N82I, H85E, E87K
B25: CD71-binding FN3 domain of SEQ ID NO: 527 (designed binder)
chain: B1 chain with I9V, Q49Y, N82E, H85I, E87N
B26: CD71-binding FN3 domain of SEQ ID NO: 499 (designed binder)
chain: B1 chain with I9V, H47S, Q49Y, N82S, H85F, E87D
B27: CD71-binding FN3 domain of SEQ ID NO: 508 (designed binder)
chain: B1 chain with I9V, H47T, Q49S, N82E, H85I, E87I
B28: CD71-binding FN3 domain of SEQ ID NO: 500 (designed binder)
chain: B1 chain with I9V, H47D, Q49L, N82M, H85S, E87I
B29: CD71-binding FN3 domain of SEQ ID NO: 523 (designed binder)
chain: B1 chain with I9V, H47D, Q49L, N82E, H85T
B30: CD71-binding FN3 domain of SEQ ID NO: 511 (designed binder)
chain: B1 chain with I9V, H47D, Q49F, N82L, H85V, E87S
B31: CD71-binding FN3 domain of SEQ ID NO: 515 (designed binder)
chain: B1 chain with I9V, H47A, Q49W, N82T, H85I, E87Q
B32: CD71-binding FN3 domain of SEQ ID NO: 496 (designed binder)
chain: B1 chain with I9V, H47I, Q49W, N82V, H85I, E87Q
B33: CD71-binding FN3 domain of SEQ ID NO: 486 (designed binder)
chain: B1 chain with K6E, I9V, P25L, H47S, Q49L, F79I, P80A, N82E, H85S, E87A
B34: CD71-binding FN3 domain of SEQ ID NO: 494 (designed binder)
chain: B1 chain with I9V, A24T, H47S, Q49Y, N82M, H85S, E87I
B35: CD71-binding FN3 domain of SEQ ID NO: 518 (designed binder)
chain: B1 chain with I9V, H47S, Q49W, N82D, H85G, E87H
B36: CD71-binding FN3 domain of SEQ ID NO: 528 (designed binder)
chain: B1 chain with I9V, H47T, Q49L, N82I, H85I, E87I
B37: CD71-binding FN3 domain of SEQ ID NO: 498 (designed binder)
chain: B1 chain with I9V, H47I, Q49W, N82I, H85I, E87V
B38: CD71-binding FN3 domain of SEQ ID NO: 504 (designed binder)
chain: B1 chain with I9V, H47G, Q49V, N82H, H85G, E87I
B39: CD71-binding FN3 domain of SEQ ID NO: 490 (designed binder)
chain: B1 chain with I9V, H47S, N82A, H85V, E87N
B40: CD71-binding FN3 domain of SEQ ID NO: 491 (designed binder)
chain: B1 chain with I9V, P42S, Q49I, N82D, H85V, E87S

target: T1, human CD71 extracellular domain (human, UniProt P02786 89-760, biotinylated); assay: primary ELISA; also: test concentration or dose not given here
T1 construct: also called hCD71; CD71-ECD
T1 sequence (P02786 89-760): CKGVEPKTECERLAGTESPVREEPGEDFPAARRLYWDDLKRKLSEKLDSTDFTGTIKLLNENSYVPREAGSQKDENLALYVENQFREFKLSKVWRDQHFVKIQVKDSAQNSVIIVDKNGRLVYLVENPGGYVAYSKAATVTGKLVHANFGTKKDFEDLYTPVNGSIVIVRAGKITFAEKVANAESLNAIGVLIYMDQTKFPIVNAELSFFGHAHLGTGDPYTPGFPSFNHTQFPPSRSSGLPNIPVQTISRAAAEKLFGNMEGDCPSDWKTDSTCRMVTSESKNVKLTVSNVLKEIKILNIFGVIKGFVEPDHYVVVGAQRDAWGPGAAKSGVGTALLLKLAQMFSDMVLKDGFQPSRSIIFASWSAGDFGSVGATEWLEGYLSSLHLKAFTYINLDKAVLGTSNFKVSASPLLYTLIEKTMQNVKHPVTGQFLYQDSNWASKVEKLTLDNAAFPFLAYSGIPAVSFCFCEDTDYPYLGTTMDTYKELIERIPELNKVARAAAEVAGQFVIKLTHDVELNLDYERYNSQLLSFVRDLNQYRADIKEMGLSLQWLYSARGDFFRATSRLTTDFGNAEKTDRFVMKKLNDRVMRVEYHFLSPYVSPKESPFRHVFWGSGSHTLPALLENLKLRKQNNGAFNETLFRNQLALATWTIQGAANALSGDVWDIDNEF

Row | RLU [RLU] | Binder
1 | 2.23e+06 | B1
2 | 5.2e+06 | B2
3 | 2.27e+06 | B3
4 | 5.62e+06 | B4
5 | 5.92e+06 | B5
6 | 3.18e+06 | B6
7 | 4.13e+06 | B7
8 | 3.22e+06 | B8
9 | 3.12e+06 | B9
10 | 3.05e+06 | B10
11 | 2.47e+06 | B11
12 | 5.38e+06 | B12
13 | 4.73e+06 | B13
14 | 3.21e+06 | B14
15 | 4.61e+06 | B15
16 | 2.06e+06 | B16
17 | 2.93e+06 | B17
18 | 4.29e+06 | B18
19 | 3.7e+06 | B19
20 | 2.75e+06 | B20

Row | RLU [RLU] | Binder
21 | 3.91e+06 | B21
22 | 6.02e+06 | B22
23 | 2.52e+06 | B23
24 | 1.49e+06 | B24
25 | 6.59e+06 | B25
26 | 2.78e+06 | B26
27 | 4.22e+06 | B27
28 | 2.95e+06 | B28
29 | 4.19e+06 | B29
30 | 5.03e+06 | B30
31 | 5.14e+06 | B31
32 | 5.27e+06 | B32
33 | 1.75e+06 | B33
34 | 3.2e+06 | B34
35 | 1.85e+06 | B35
36 | 5.18e+06 | B36
37 | 5.7e+06 | B37
38 | 1.22e+06 | B38
39 | 4.15e+06 | B39
40 | 4.66e+06 | B40

target: T2, apical domain of human CD71 (human, UniProt P02786 189-383, limits assumed); assay: primary ELISA; also: test concentration or dose not given here
T2 construct: domain: apical domain; Screen 4 panned on human apical domains, the ELISA text says only 'apical domain'
T2 sequence (P02786 189-383 limits assumed): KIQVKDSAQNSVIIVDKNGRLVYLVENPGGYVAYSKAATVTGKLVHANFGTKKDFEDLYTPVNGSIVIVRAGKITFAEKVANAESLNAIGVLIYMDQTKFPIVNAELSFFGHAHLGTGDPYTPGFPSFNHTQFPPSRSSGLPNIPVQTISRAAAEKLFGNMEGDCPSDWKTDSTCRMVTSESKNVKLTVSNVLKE

Row | RLU [RLU] | Binder
41 | 2.66e+06 | B1
42 | 5.76e+06 | B2
43 | 3.43e+06 | B3
44 | 5.38e+06 | B4
45 | 5.94e+06 | B5
46 | 5.25e+06 | B6
47 | 3.24e+06 | B7
48 | 3.95e+06 | B8
49 | 3.64e+06 | B9
50 | 3.47e+06 | B10
51 | 3.23e+06 | B11
52 | 5.64e+06 | B12
53 | 4.67e+06 | B13
54 | 4.88e+06 | B14
55 | 4.48e+06 | B15
56 | 3.87e+06 | B16
57 | 4.58e+06 | B17
58 | 3.38e+06 | B18
59 | 5.37e+06 | B19
60 | 2.5e+06 | B20

Row | RLU [RLU] | Binder
61 | 3.48e+06 | B21
62 | 5.93e+06 | B22
63 | 2.72e+06 | B23
64 | 2.34e+06 | B24
65 | 6.4e+06 | B25
66 | 3.13e+06 | B26
67 | 3.55e+06 | B27
68 | 3.39e+06 | B28
69 | 4.31e+06 | B29
70 | 5.48e+06 | B30
71 | 4.67e+06 | B31
72 | 5.66e+06 | B32
73 | 1.98e+06 | B33
74 | 3.32e+06 | B34
75 | 3.34e+06 | B35
76 | 5.58e+06 | B36
77 | 5.67e+06 | B37
78 | 2.68e+06 | B38
79 | 2.9e+06 | B39
80 | 5.07e+06 | B40

target: T1, human CD71 extracellular domain; assay: primary ELISA, RLU over HSA

Row | hCD71:HSA | Binder
81 | 247 | B1
82 | 187 | B2
83 | 146 | B3
84 | 186 | B4
85 | 119 | B5
86 | 146 | B6
87 | 466 | B7
88 | 190 | B8
89 | 142 | B9
90 | 136 | B10
91 | 66 | B11
92 | 52 | B12
93 | 267 | B13
94 | 399 | B14
95 | 289 | B15
96 | 124 | B16
97 | 229 | B17
98 | 362 | B18
99 | 497 | B19
100 | 190 | B20

Row | hCD71:HSA | Binder
101 | 318 | B21
102 | 49 | B22
103 | 186 | B23
104 | 141 | B24
105 | 15 | B25
106 | 132 | B26
107 | 264 | B27
108 | 147 | B28
109 | 292 | B29
110 | 49 | B30
111 | 97 | B31
112 | 43 | B32
113 | 297 | B33
114 | 356 | B34
115 | 150 | B35
116 | 169 | B36
117 | 113 | B37
118 | 78 | B38
119 | 403 | B39
120 | 265 | B40

target: T2, apical domain of human CD71; assay: primary ELISA, RLU over HSA

Row | Apical domain:HSA | Binder
121 | 295 | B1
122 | 207 | B2
123 | 220 | B3
124 | 178 | B4
125 | 119 | B5
126 | 241 | B6
127 | 366 | B7
128 | 232 | B8
129 | 166 | B9
130 | 154 | B10
131 | 86 | B11
132 | 54 | B12
133 | 264 | B13
134 | 606 | B14
135 | 281 | B15
136 | 233 | B16
137 | 358 | B17
138 | 285 | B18
139 | 721 | B19
140 | 172 | B20

Row | Apical domain:HSA | Binder
141 | 283 | B21
142 | 48 | B22
143 | 201 | B23
144 | 222 | B24
145 | 15 | B25
146 | 148 | B26
147 | 222 | B27
148 | 169 | B28
149 | 300 | B29
150 | 53 | B30
151 | 88 | B31
152 | 47 | B32
153 | 335 | B33
154 | 369 | B34
155 | 271 | B35
156 | 182 | B36
157 | 112 | B37
158 | 172 | B38
159 | 281 | B39
160 | 288 | B40
